Assay results from patent US20200087400A1 (EUREKA THERAPEUTICS, published 2020).

Columns and labels:
Assay in all cases: phage ELISA, streptavidin plate, anti-M13-HRP
[1] = biological target: T1, Bio-P19 member A2E-11 (chain 2: C-terminal BirA substrate peptide (BSP), enzymatically biotinylated; its letters are not printed in the patent and it is left out)
T1 construct: also called biotinylated control peptide A2E-11/HLA-A*02:01 monomer
Procedure, shortened: (§1)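 T2 cells + peptide + β2M → purified scFv phage → mouse anti-M13 mAb → R-PE anti-mouse IgG; each step 30-60 min on ice, two washes between. ELISA: phage clones on coated plate, HRP anti-M13, A450.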

[2] = biological target: T2, Bio-P19 member A2E-21 (chain 2 carries a C-terminal BirA substrate peptide (BSP), enzymatically biotinylated; the BSP letters are not given in the patent and are left out)
T2 construct: also called biotinylated control peptide A2E-21/HLA-A*02:01 monomer
Procedure, shortened: as §1

[3] = biological target: T3, Bio-P19 member A2E-23 (chain 2 carries a C-terminal BirA substrate peptide (BSP), enzymatically biotinylated; the BSP letters are not given in the patent and are left out)
T3 construct: also called biotinylated control peptide A2E-23/HLA-A*02:01 monomer
Procedure, shortened: as §1

[4] = biological target: T4, Bio-P19 member A2E-16 (chain 2: C-terminal BirA substrate peptide (BSP), enzymatically biotinylated; its letters are not printed in the patent and it is left out)
T4 construct: also called biotinylated control peptide A2E-16/HLA-A*02:01 monomer
Procedure, shortened: as §1

[5] = biological target: T5, Bio-P19 member A2E-1 (chain 2: C-terminal BirA substrate peptide (BSP), enzymatically biotinylated; its letters are not printed in the patent and it is left out)
T5 construct: also called biotinylated control peptide A2E-1/HLA-A*02:01 monomer
Procedure, shortened: as §1

[6] = biological target: T6, Bio-P19 member A2E-17 (chain 2: C-terminal BirA substrate peptide (BSP), enzymatically biotinylated; its letters are not printed in the patent and it is left out)
T6 construct: also called biotinylated control peptide A2E-17/HLA-A*02:01 monomer
Procedure, shortened: as §1

[7] = biological target: T7, Bio-P19 member A2E-14 (chain 2: C-terminal BirA substrate peptide (BSP), enzymatically biotinylated; its letters are not printed in the patent and it is left out)
T7 construct: also called biotinylated control peptide A2E-14/HLA-A*02:01 monomer
Procedure, shortened: as §1

[8] = biological target: T8, Bio-P19 member A2E-10 (chain 2: C-terminal BirA substrate peptide (BSP), enzymatically biotinylated; its letters are not printed in the patent and it is left out)
T8 construct: also called biotinylated control peptide A2E-10/HLA-A*02:01 monomer
Procedure, shortened: as §1

[9] = biological target: T9, Bio-P19 member A2E-5 (chain 2 carries a C-terminal BirA substrate peptide (BSP), enzymatically biotinylated; the BSP letters are not given in the patent and are left out)
T9 construct: also called biotinylated control peptide A2E-5/HLA-A*02:01 monomer
Procedure, shortened: as §1

[10] = biological target: T10, Bio-P19 member A2E-15 (chain 2: C-terminal BirA substrate peptide (BSP), enzymatically biotinylated; its letters are not printed in the patent and it is left out)
T10 construct: also called biotinylated control peptide A2E-15/HLA-A*02:01 monomer
Procedure, shortened: as §1

[11] = biological target: T11, Bio-P19 member A2E-6 (chain 2 carries a C-terminal BirA substrate peptide (BSP), enzymatically biotinylated; the BSP letters are not given in the patent and are left out)
T11 construct: also called biotinylated control peptide A2E-6/HLA-A*02:01 monomer
Procedure, shortened: as §1

[12] = biological target: T12, Bio-P19 member A2E-2 (chain 2 carries a C-terminal BirA substrate peptide (BSP), enzymatically biotinylated; the BSP letters are not given in the patent and are left out)
T12 construct: also called biotinylated control peptide A2E-2/HLA-A*02:01 monomer
Procedure, shortened: as §1

[13] = biological target: T13, Bio-P19 member A2E-13 (chain 2: C-terminal BirA substrate peptide (BSP), enzymatically biotinylated; its letters are not printed in the patent and it is left out)
T13 construct: also called biotinylated control peptide A2E-13/HLA-A*02:01 monomer
Procedure, shortened: as §1

[14] = biological target: T14, Bio-P19 member A2E-3 (chain 2 carries a C-terminal BirA substrate peptide (BSP), enzymatically biotinylated; the BSP letters are not given in the patent and are left out)
T14 construct: also called biotinylated control peptide A2E-3/HLA-A*02:01 monomer
Procedure, shortened: as §1

[15] = biological target: T15, Bio-P19 member A2E-7 (chain 2 (heavy): C-terminal BirA substrate peptide, biotinylated there by BirA; tag letters not given, left out)
T15 construct: also called biotinylated control peptide A2E-7/HLA-A*02:01 monomer; not shown: BirA substrate peptide (BSP) tag at the C-terminus of the heavy chain
Procedure, shortened: as §1

[16] = biological target: T16, Bio-P19 member A2E-8 (chain 2 (heavy): C-terminal BirA substrate peptide, biotinylated there by BirA; tag letters not given, left out)
T16 construct: also called biotinylated control peptide A2E-8/HLA-A*02:01 monomer; not shown: BirA substrate peptide (BSP) tag at the C-terminus of the heavy chain
Procedure, shortened: as §1

Measured: binding result

T4 sequence (b2m, as listed by the source): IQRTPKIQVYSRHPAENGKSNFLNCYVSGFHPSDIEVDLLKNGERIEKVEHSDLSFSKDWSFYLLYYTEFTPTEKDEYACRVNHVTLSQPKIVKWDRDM
T10 sequence (b2m, as listed by the source): as above
T15 sequence (b2m, as listed by the source): as above
T3 sequence (beta, as listed by the source): as the sequence (b2m, as listed by the source) above
T14 sequence (beta, as listed by the source): as the sequence (b2m, as listed by the source) above
T8 sequence (b2m, as listed by the source): as above
T11 sequence (beta, as listed by the source): as the sequence (b2m, as listed by the source) above
T9 sequence (beta, as listed by the source): as the sequence (b2m, as listed by the source) above
T6 sequence (b2m, as listed by the source): as above
T5 sequence (b2m, as listed by the source): as above
T13 sequence (b2m, as listed by the source): as above
T1 sequence (b2m, as listed by the source): as above
T12 sequence (beta, as listed by the source): as the sequence (b2m, as listed by the source) above
T16 sequence (b2m, as listed by the source): as above
T7 sequence (b2m, as listed by the source): as above
T2 sequence (beta, as listed by the source): as the sequence (b2m, as listed by the source) above

B1: PSA146/HLA-A*02:01-specific scFv phage clone #15 (scFv, V domains shown)
VH: QVQLVQSGAEVKKPGSSVKVSCKASGGTFSSYAISWVRQAPGQGLEWMGRIIPILGIANYAQKFQGRVTITADKSTSTAYMELSSLRSEDTAVYYCARVSQPVYGSSTYDIWGQGTLVTVSS
VL: QAVLTQPPSASGTPGQRVTISCSGRSSNLGSNSVNWYQQVPGTAPKLLIFDNHQRPSGVPDRFSGSKSGTSASLAISGLRSEDETDYYCAAWDDSLNSVVFGGGTKLTVLG
no binding: all assays above

B2: PSA146/HLA-A*02:01-specific scFv phage clone #18 (scFv, V domains shown)
VH: QVQLVQSGAEVKKPGESLKISCKGSGYSFTSYWIGWVRQMPGKGLEWMGIIYPGDSDTRYSPSFQGQVTISADKSISTAYLQWSSLKASDTAMYYCARWGSRGFLDAFDIWGQGTMVTVSS
VL: QSVVTQPPSVSAAPGQRVTISCSGSSSNIGNNYVSWYQQLPGAAPRLLIYDNDKRPSGIPDRFSGSKSGTSATLGITGLQTGDEADYYCGTWDSSLSSGVFGGGTKLTVLG
no binding: all assays above
